Test results as given in patent US8507245B2, “Site-directed pegylation of arginases and the use thereof as anti-cancer and anti-viral agents” (priority 2009, dated 2013).
Where a chain is given by its changes, count along the chain named. Names may count otherwise. Where two headings read alike, the source gives them in different places.

Key:
[1] = tested on: HCT-15 human colorectal cancer cells; format: in vivo, BALB/c nude mice
Method: Athymic nude BALB/c mice (age of 6-8 weeks) were housed under sterile conditions with 12 hour light-dark cycle and provided with autoclaved feed ad libitum. The mice were acclimated for at least 1 week before the start of experiments. Each nude mouse was implanted with ˜3 mm^3 of in vivo maintained HCT-15 human colorectal cancer cells to the right axilla subcutaneously. When stable palpable tumours of ˜5 mm diameter were developed, the mice were randomly separated into five different groups (Table 6). Intraperitoneal administrations of arginase drugs or control vehicle (PBS) were given twice per week while 5-fluorouracil was given once per week starting from Day 0. Tumour dimensions (L: longest diameter and W: its perpendicular diameter) and body weights were measured on every Mondays, Wednesdays and Fridays with Vernier caliper. Tumour volume was calculated with the formula (½×L×W^2) and no. of fold increase in tumour volume (relative tumour volume) was calculated with reference to Day-0. The results were plotted against time. The mice were euthanized at the end of experiment or when tumour diameter reached 2.5 cm.

blood arginine = test: Pharmacodynamics: depletion of arginine in BALB/c normal mice; format: in vivo; settings: plasma, single i.p. dose
Method: Pharmacodynamics of Cys^45 pegylated human arginase I and Cys^161 pegylated Bacillus caldovelox arginase were studied using BALB/c normal mice. The study was carried out in conjunction with the pharmacokinetic study (described below). Therefore, the protocol remained the same. Again, the blood samples collected was centrifuged immediately at 13,200 rpm for 5 minutes and the plasma layer were collected for further analysis using the Amino Acid Analyzer (Biochrom 30, Biochrom Ltd., England).

[2] = tested on: hepatocellular carcinoma Hep3B cells; format: in vivo, BALB/c nude mice; settings: for effect on tumour growth (tumour volume) vs PBS control: 500 Units/mouse i.p. weekly for 8 weeks, HAI-PEG20 effect from Day 47 (p<0.01); for average body weight: mouse, in vivo, ip
Method: A number of BALB/c nude mice were injected with hepatocellular carcinoma Hep3B cells intraperitoneally (i.p.) and maintained in vivo. Then each of the 30 BALB/c nude mice was injected with ˜1×10^6 of the in vivo maintained cancer cells to the right axilla subcutaneously. When palpable tumours of 5 mm diameter were developed, the mice were separated into three different groups (see Table 3). Drugs or PBS buffer were administered intraperitoneally weekly starting on day 0 for 8 weeks. Body weights and tumour dimensions (L: length of the longer diameter and W: length of the shorter diameter of the tumour) were measured twice a week. Tumour volume (½×L×W^2) was calculated and plotted against time. After 60 days or when tumour diameter reached 2.5 cm, the mice were euthanized. Survival rates of the mice were recorded at the end of the study.

HIV-1 strain RF = test: HIV replication (virus inhibition) assay in H9 cells
[3] = Steady-state kinetics of human arginase I with Mn2+ or Co2+ (DAMO assay); format: biochemical; settings: for Km: sodium phosphate buffer pH 7.4, 25° C.
Method: Diacetylmonoxine (DAMO) assay was used to determine the kinetic parameters of human arginase with different metal cofactors. All enzymatic reactions were carried out at pH 7.4.

MDA-MB-231 = test: Cell proliferation assay (MTT, Table 11); format: cell-based; settings: MDA-MB-231 breast, 3 days
4T1 = test: Cell proliferation assay (MTT, Table 11); format: cell-based, mouse; settings: 4T1 breast, 3 days
Method: 1×10^5 cells of a mouse metastatic breast cancer cell line (4T1) were injected orthotopically into the No. 4 inguinal mammary fat pad of wild-type BALB/c mice at the age of 6-8 weeks. When the tumors reached an average of 5 mm, the mice were divided into two different treatment groups (Table 7). BCA-PEG20 (250 U/mouse) or control vehicle (PBS) were injected intraperitoneally twice per week starting from Day 0. Body weight was measured every week. After three weeks, the mice were sacrificed and analyzed for the lung metastasis. The number of lung metastases was counted under a dissecting microscope after rinsing with PBS.
Cell Proliferation Assay: For each cancer cell line, cells (5×10^3) in 100 μL culture medium were seeded to the wells of a 96-well plate and incubated for 24 hours by standard method.

[4] = sodium phosphate buffer pH 7.4, 25° C.
Method: Either Bacillus caldovelox arginase (BCA) or the human arginase I (HAI) was expressed as described previously. The purification method was the same as described before except 10 mM of metal ion (CoSO4 or MnSO4) was added into the purified protein elution from Nickel affinity chromatography instead of added before Nickel affinity chromatography. Eluted factions containing the arginase enzyme were incubated with 10 mM metal for 15 min at 50˜55° C., followed by filtration through a 0.45 μm syringe filter. Then the solution was exchanged with storage buffer by ultrafiltration.
The mutant genes were cloned, expressed and purified for detailed studies.

O=c1[nH]cc(F)c(=O)[nH]1 [5-fluorouracil]
effect on tumour growth vs control ([1]; arginases i.p. twice per week (BCA 500, BCA-PEG20 250 Units/mouse), 5-fluorouracil 10 mg/kg once per week): did not show significant tumour suppression
average body weight, last recorded ([1]; mouse, in vivo): 24.5 ± 1.4 g

B1: HAI-PEG20: Cys^45-specific mono-pegylated 6xHis-tagged human arginase I mutant (C168S/C303S) with single chain mPEG-maleimide (20 kDa) (conjugate, UniProt P05089 1-322, looked up, variant C168S C303S)
Arginase-1: MSAKSRTIGIIGAPFSKGQPRGGVEEGPTVLRKAGLLEKLKEQECDVKDYGDLPFADIPNDSPFQIVKNPRSVGKASEQLAGKVAEVKKNGRISLVLGGDHSLAIGSISGHARVHPDLGVIWVDAHTDINTPLTTTSGNLHGQPVSFLLKELKGKIPDVPGFSWVTPSISAKDIVYIGLRDVDPGEHYILKTLGIKYFSMTEVDRLGIGKVMEETLSYLLGRKKRPIHLSFDVDGLDPSFTPATGTPVVGGLTYREGLYITEEIYKTGLLSGLDIMEVNPSLGKTPEEVTRTVNTAVAITLASFGLAREGNHKPIDYLNPPK
modifications: 20 kDa mPEG-maleimide at Cys45; 6xHis tag
time at which arginine started to appear after arginase administration (blood arginine): 6.8 ± 2.3 days
arginine depletion (blood arginine; starting from 6 hr (Day 0)): totally depleted
ornithine level (blood arginine; stayed at high level up to Day 3): > 150 µM
effect on tumour growth (tumour volume) vs PBS control [2]: significantly reduced the rate of tumour growth
average body weight [2]: 25.0 ± 0.2 g
wells displaying cytopathic effect (positive wells/wells inoculated) (HIV-1 strain RF; 1 U/mL): 8/8
wells displaying cytopathic effect (positive wells/wells inoculated) (HIV-1 strain RF; 10 U/mL): 6/8
wells displaying cytopathic effect (positive wells/wells inoculated) (HIV-1 strain RF; 50 U/mL): 3/8
IC50 on HIV (HIV-1 strain RF; H9 cells, five days post infection, cytopathic effect): approximately 37 U/mL

B2: HAI Co^2+: recombinant human arginase I with cobalt replacing manganese as metal cofactor (protein, UniProt P05089 1-322, looked up)
Arginase-1: B1 Arginase-1 with S168C, S303C
modifications: cobalt cofactor
improvement of Km value vs HAI Mn^2+ ([3]; pH 7.4, 25° C.): about 10 fold
Km [3]: 0.19 mM

B3: HAI: non-pegylated 6xHis-tagged recombinant human arginase I (protein, UniProt P05089 1-322, looked up)
Arginase-1: B1 Arginase-1 with S168C, S303C
modifications: 6xHis tag
notes: non-pegylated 6xHis-tagged recombinant human arginase I
effect on tumour growth (tumour volume) vs PBS control [2]: did not show any significant effect
average body weight [2]: 25.5 ± 0.2 g
IC50 (MDA-MB-231): 0.273 U/mL
IC50 (4T1): 0.058 U/mL

B4: HAI Mn^2+: recombinant human arginase I with Mn^2+ as metal cofactor (protein, UniProt P05089 1-322, looked up)
Arginase-1: B1 Arginase-1 with S168C, S303C
modifications: Mn2+ cofactor
notes: recombinant human arginase I with Mn^2+ as metal cofactor
Km [3]: 1.83 mM

B5: BCA mutant V20P Mn^2+ (protein, UniProt P53608 1-299, looked up, variant V20P)
Arginase: MKPISIIGVPMDLGQTRRGPDMGPSAMRYAGVIERLERLHYDIEDLGDIPIGKAERLHEQGDSRLRNLKAVAEANEKLAAAVDQVVQRGRFPLVLGGDHSIAIGTLAGVAKHYERLGVIWYDAHGDVNTAETSPSGNIHGMPLAASLGFGHPALTQIGGYSPKIKPEHVVLIGVRSLDEGEKKFIREKGIKIYTMHEVDRLGMTRVMEETIAYLKERTDGVHLSLDLDGLDPSDAPGVGTPVIGGLTYRESHLAMEMLAEAQIITSAEFVEVNPILDERNKTASVAVALMGSLFGEKLM
modifications: Mn2+
Km [4]: ~1.29 mM

B6: BCAWTMn^2+: wild-type Bacillus caldovelox arginase with Mn^2+ (protein, UniProt P53608 1-299, looked up)
Arginase: B5 Arginase with P20V
modifications: Mn2+
Km [4]: ~3.2 mM

B7: BCA mutant V20P Co^2+ (protein, UniProt P53608 1-299, looked up, variant V20P)
Arginase: B5 Arginase
modifications: Co2+
Km [4]: ~0.18 mM
